Data from patent US20120034160A1 (AbbVie / Abbott, published 2012).

T1: Recombinant Human IL-17 (human, UniProt Q16552 20-155, limits assumed)
T1 construct: bought reagent
T1 sequence (looked up): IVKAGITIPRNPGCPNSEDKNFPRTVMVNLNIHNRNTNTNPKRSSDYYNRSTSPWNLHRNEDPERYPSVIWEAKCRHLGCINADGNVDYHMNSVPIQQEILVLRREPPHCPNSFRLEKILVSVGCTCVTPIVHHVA


Experiments:
Recombinant Human IL-17 = molecular target: T1, Recombinant Human IL-17; test: Biacore SPR; N-terminal VD
Method: (§1) The BIACORE assay (Biacore, Inc, Piscataway, N.J.) determines the affinity of antibodies or DVD-Ig with kinetic measurements of on-rate and off-rate constants. Binding of antibodies or DVD-Ig to a target antigen (for example, a purified recombinant target antigen) was determined by surface plasmon resonance-based measurements with a Biacore® 1000 or 3000 instrument (Biacore® AB, Uppsala, Sweden) using running HBS-EP (10 mM HEPES [pH 7.4], 150 mM NaCl, 3 mM EDTA, and 0.005% surfactant P20) at 25° C. All chemicals were obtained from Biacore® AB (Uppsala, Sweden) or otherwise from a different source as described in the text. For example, approximately 5000 RU of goat anti-mouse IgG, (Fcγ), fragment specific polyclonal antibody (Pierce Biotechnology Inc, Rockford, Ill.) diluted in 10 mM sodium acetate (pH 4.5) was directly immobilized across a CM5 research grade biosensor chip using a standard amine coupling kit according to manufacturer's instructions and procedures at 25 μg/ml. Unreacted moieties on the biosensor surface were blocked with ethanolamine. Modified carboxymethyl dextran surface in flowcell 2 and 4 was used as a reaction surface. Unmodified carboxymethyl dextran without goat anti-mouse IgG in flow cell 1 and 3 was used as the reference surface. For kinetic analysis, rate equations derived from the 1:1 Langmuir binding model were fitted simultaneously to association and dissociation phases of all eight injections (using global fit analysis) with the use of Biaevaluation 4.0.1 software. Purified antibodies or DVD-Ig were diluted in HEPES-buffered saline for capture across goat anti-mouse IgG specific reaction surfaces. Antibodies or DVD-Ig to be captured as a ligand (25 μg/ml) were injected over reaction matrices at a flow rate of 5 μl/min. The association and dissociation rate constants, kₒₙ (M⁻¹s⁻¹) and koff (s⁻¹) were determined under a continuous flow rate of 25 μl/min. Rate constants were derived by making kinetic binding measurements at different antigen concentrations ranging from 10−200 nM. The equilibrium dissociation constant (M) of the reaction between antibodies or DVD-Igs and the target antigen was then calculated from the kinetic rate constants by the following formula: KD=koff/kₒₙ. Binding was recorded as a function of time and kinetic rate constants are calculated.

Recombinant Human IL-1β = molecular target: T2, Recombinant Human IL-1β (human, UniProt P01584 117-269); test: Biacore SPR; C-terminal VD
T2 construct: bought reagent; also called IL-1B
Method: as §1

Row | Binder | Kd (Recombinant Human IL-17) | koff (Recombinant Human IL-17) | kon (Recombinant Human IL-17) | Kd (Recombinant Human IL-1β) | koff (Recombinant Human IL-1β) | kon (Recombinant Human IL-1β)
1 | DVD1608 (bispecific antibody, human IgG1, kappa, DVD-Ig, outer AB274, inner AB272, linker set 2; V1 wt hIgG1, V2 kappa; also called DVD1608H; DVD1608L) heavy: not shown light: EIVLTQSPDFQSVTPKEKVTITCRASQDIGSELHWYQQKPDQPPKLLIKYASHSTSGVPSRFSGSGSGTDFTLTINGLEAEDAGTYYCHQTDSLPYTFGPGTKVDIKRTVAAPSVFIFPPETTVTQSPSSLSASVGDRVTITCITSTDIDVDMNWYQQKPGKPPKLLISQGNTLRPGVPSRFSSSGSGTDFTFTISSLQPEDFATYYCLQSDNLPLTFGQGTKLEIKRTVAAPSVFIFPPSDEQLKSGTASVVCLLNNFYPREAKVQWKVDNALQSGNSQESVTEQDSKDSTYSLSSTLTLSKADYEKHKVYACEVTHQGLSSPVTKSFNRGEC | 0.0026 nM | 1.2e-05 s⁻¹ | 4.8e+06 M⁻¹ s⁻¹ | 0.37 nM | 0.00056 s⁻¹ | 1.5e+06 M⁻¹ s⁻¹
2 | DVD1620 (bispecific antibody, human IgG1, kappa, V1 wt hIgG1, V2 kappa; also called DVD1620H; DVD1620L) heavy: not shown light: DIQMTQSPSSLSASVGDRVTITCRASSGIISYIDWFQQKPGKAPKRLIYATFDLASGVPSRFSGSGSGTDYTLTISSLQPEDFATYYCRQVGSYPETFGQGTKLEIKRTVAAPDIQMTQSPSSLSASVGDRVTITCRASGNIHNYLTWYQQTPGKAPKLLIYNAKTLADGVPSRFSGSGSGTDYTFTISSLQPEDIATYYCQHFWSIPYTFGQGTKLQITRTVAAPSVFIFPPSDEQLKSGTASVVCLLNNFYPREAKVQWKVDNALQSGNSQESVTEQDSKDSTYSLSSTLTLSKADYEKHKVYACEVTHQGLSSPVTKSFNRGEC | 0.0019 nM | 7.1e-06 s⁻¹ | 3.8e+06 M⁻¹ s⁻¹ | 0.29 nM | 9.4e-05 s⁻¹ | 330000 M⁻¹ s⁻¹
3 | DVD1610 (bispecific antibody, human IgG1, kappa, V1 wt hIgG1, V2 kappa; also called DVD1610H; DVD1610L) heavy: not shown light: EIVLTQSPDFQSVTPKEKVTITCRASQNIGSELHWYQQKPDQSPKLLIKYASHSISGVPSRFSGSGSGTDFTLTINGLEAEDAATYYCHQSDTLPHTFGQGTKVDIKRTVAAPSVFIFPPDIQMTQSPSSLSASVGDRVTITCRASGNIHNYLTWYQQTPGKAPKLLIYNAKTLADGVPSRFSGSGSGTDYTFTISSLQPEDIATYYCQHFWSIPYTFGQGTKLQITRTVAAPSVFIFPPSDEQLKSGTASVVCLLNNFYPREAKVQWKVDNALQSGNSQESVTEQDSKDSTYSLSSTLTLSKADYEKHKVYACEVTHQGLSSPVTKSFNRGEC | 0.017 nM | 5.7e-05 s⁻¹ | 3.5e+06 M⁻¹ s⁻¹ | 0.25 nM | 7.3e-05 s⁻¹ | 290000 M⁻¹ s⁻¹
4 | DVD1606 (bispecific antibody, human IgG1, kappa, DVD-Ig, outer AB274, inner AB271, linker set 2; V1 wt hIgG1, V2 kappa; also called DVD1606H; DVD1606L) heavy: not shown light: EIVLTQSPDFQSVTPKEKVTITCRASQDIGSELHWYQQKPDQPPKLLIKYASHSTSGVPSRFSGSGSGTDFTLTINGLEAEDAGTYYCHQTDSLPYTFGPGTKVDIKRTVAAPSVFIFPPDTVVTQSPAFLSVTPGEKVTITCITSTDIDVDMNWYQQKPDQPPKLLISQGNTLRPGVPSRFSSSGSGTDFTFTISSLEAEDAATYYCLQSDNLPLTFGQGTKLEIKRTVAAPSVFIFPPSDEQLKSGTASVVCLLNNFYPREAKVQWKVDNALQSGNSQESVTEQDSKDSTYSLSSTLTLSKADYEKHKVYACEVTHQGLSSPVTKSFNRGEC | 0.00067 nM | 3e-06 s⁻¹ | 4.4e+06 M⁻¹ s⁻¹ | 0.32 nM | 0.00044 s⁻¹ | 1.4e+06 M⁻¹ s⁻¹

Results, then the binder that gave them:

Row | Kd (Recombinant Human IL-17) | koff (Recombinant Human IL-17) | kon (Recombinant Human IL-17) | Kd (Recombinant Human IL-1β) | koff (Recombinant Human IL-1β) | kon (Recombinant Human IL-1β) | Binder
5 | 0.019 nM | 6.3e-05 s⁻¹ | 3.2e+06 M⁻¹ s⁻¹ | 0.26 nM | 0.00062 s⁻¹ | 2.4e+06 M⁻¹ s⁻¹ | DVD1618 (bispecific antibody, human IgG1, kappa, DVD-Ig, outer AB275, inner AB272, linker set 2; V1 wt hIgG1, V2 kappa; also called DVD1618H; DVD1618L) heavy: not shown light: EIVLTQSPDFQSVTPKEKVTITCRASQNIGSELHWYQQKPDQSPKLLIKYASHSISGVPSRFSGSGSGTDFTLTINGLEAEDAATYYCHQSDTLPHTFGQGTKVDIKRTVAAPSVFIFPPETTVTQSPSSLSASVGDRVTITCITSTDIDVDMNWYQQKPGKPPKLLISQGNTLRPGVPSRFSSSGSGTDFTFTISSLQPEDFATYYCLQSDNLPLTFGQGTKLEIKRTVAAPSVFIFPPSDEQLKSGTASVVCLLNNFYPREAKVQWKVDNALQSGNSQESVTEQDSKDSTYSLSSTLTLSKADYEKHKVYACEVTHQGLSSPVTKSFNRGEC
6 | 0.014 nM | 4.8e-05 s⁻¹ | 3.5e+06 M⁻¹ s⁻¹ | 0.18 nM | 0.0003 s⁻¹ | 1.7e+06 M⁻¹ s⁻¹ | DVD1614 (bispecific antibody, human IgG1, kappa, DVD-Ig, outer AB275, inner AB270, linker set 2; V1 wt hIgG1, V2 kappa; also called DVD1614H; DVD1614L) heavy: not shown light: EIVLTQSPDFQSVTPKEKVTITCRASQNIGSELHWYQQKPDQSPKLLIKYASHSISGVPSRFSGSGSGTDFTLTINGLEAEDAATYYCHQSDTLPHTFGQGTKVDIKRTVAAPSVFIFPPDTQVTQSPSSLSASVGDRVTITCITSTDIDVDMNWYQQKPGKPPKLLISQGNTLRPGVPSRFSSSGSGTDFTFTISSLQPEDFATYYCLQSDNLPLTFGQGTKLEIKRTVAAPSVFIFPPSDEQLKSGTASVVCLLNNFYPREAKVQWKVDNALQSGNSQESVTEQDSKDSTYSLSSTLTLSKADYEKHKVYACEVTHQGLSSPVTKSFNRGEC
7 | 0.00046 nM | 1.7e-06 s⁻¹ | 3.7e+06 M⁻¹ s⁻¹ | 0.16 nM | 0.00023 s⁻¹ | 1.5e+06 M⁻¹ s⁻¹ | DVD1622 (bispecific antibody, human IgG1, kappa, V1 wt hIgG1, V2 kappa; also called DVD1622H; DVD1622L) heavy: not shown light: DIQMTQSPSSLSASVGDRVTITCRASSGIISYIDWFQQKPGKAPKRLIYATFDLASGVPSRFSGSGSGTDYTLTISSLQPEDFATYYCRQVGSYPETFGQGTKLEIKRTVAAPDIQMTQSPSSLSASVGDRVTITCRASGNIHNYLTWYQQTPGKAPKLLIYNAKTLADGVPSRFSGSGSGTDYTFTISSLQPEDIATYYCQHFWSIPYTFGQGTKLQITRTVAAPSVFIFPPSDEQLKSGTASVVCLLNNFYPREAKVQWKVDNALQSGNSQESVTEQDSKDSTYSLSSTLTLSKADYEKHKVYACEVTHQGLSSPVTKSFNRGEC
8 | 0.016 nM | 5.1e-05 s⁻¹ | 3.2e+06 M⁻¹ s⁻¹ | 0.15 nM | 2.5e-05 s⁻¹ | 160000 M⁻¹ s⁻¹ | DVD1612 (bispecific antibody, human IgG1, kappa, V1 wt hIgG1, V2 kappa; also called DVD1612H; DVD1612L) heavy: not shown light: EIVLTQSPDFQSVTPKEKVTITCRASQNIGSELHWYQQKPDQSPKLLIKYASHSISGVPSRFSGSGSGTDFTLTINGLEAEDAATYYCHQSDTLPHTFGQGTKVDIKRTVAAPSVFIFPPDIQMTQSPSSLSASVGDRVTITCRASGNIHNYLTWYQQTPGKAPKLLIYNAKTLADGVPSRFSGSGSGTDYTFTISSLQPEDIATYYCQHFWSIPYTFGQGTKLQITRTVAAPSVFIFPPSDEQLKSGTASVVCLLNNFYPREAKVQWKVDNALQSGNSQESVTEQDSKDSTYSLSSTLTLSKADYEKHKVYACEVTHQGLSSPVTKSFNRGEC
9 | 0.015 nM | 4.9e-05 s⁻¹ | 3.3e+06 M⁻¹ s⁻¹ | 0.22 nM | 0.00036 s⁻¹ | 1.6e+06 M⁻¹ s⁻¹ | DVD1616 (bispecific antibody, human IgG1, kappa, DVD-Ig, outer AB275, inner AB271, linker set 2; V1 wt hIgG1, V2 kappa; also called DVD1616H; DVD1616L) heavy: not shown light: EIVLTQSPDFQSVTPKEKVTITCRASQNIGSELHWYQQKPDQSPKLLIKYASHSISGVPSRFSGSGSGTDFTLTINGLEAEDAATYYCHQSDTLPHTFGQGTKVDIKRTVAAPSVFIFPPDTVVTQSPAFLSVTPGEKVTITCITSTDIDVDMNWYQQKPDQPPKLLISQGNTLRPGVPSRFSSSGSGTDFTFTISSLEAEDAATYYCLQSDNLPLTFGQGTKLEIKRTVAAPSVFIFPPSDEQLKSGTASVVCLLNNFYPREAKVQWKVDNALQSGNSQESVTEQDSKDSTYSLSSTLTLSKADYEKHKVYACEVTHQGLSSPVTKSFNRGEC
10 | 0.011 nM | 4.1e-05 s⁻¹ | 3.7e+06 M⁻¹ s⁻¹ | 0.84 nM | 0.00046 s⁻¹ | 550000 M⁻¹ s⁻¹ | DVD1624 (bispecific antibody, human IgG1, kappa, DVD-Ig, outer AB273, inner AB270, linker set 3; V1 wt hIgG1, V2 kappa; also called DVD1624H; DVD1624L) heavy: not shown light: DIQMTQSPSSLSASVGDRVTITCRASSGIISYIDWFQQKPGKAPKRLIYATFDLASGVPSRFSGSGSGTDYTLTISSLQPEDFATYYCRQVGSYPETFGQGTKLEIKRTVAAPDTQVTQSPSSLSASVGDRVTITCITSTDIDVDMNWYQQKPGKPPKLLISQGNTLRPGVPSRFSSSGSGTDFTFTISSLQPEDFATYYCLQSDNLPLTFGQGTKLEIKRTVAAPSVFIFPPSDEQLKSGTASVVCLLNNFYPREAKVQWKVDNALQSGNSQESVTEQDSKDSTYSLSSTLTLSKADYEKHKVYACEVTHQGLSSPVTKSFNRGEC
